Holding throughout (assay): cell-based or functional assay
Test [1] deals with T1, rat amylin 3(a) receptor (rat calcitonin(a) receptor + rat RAMP3) (rat, UniProt P32214 25-516; Q9JJ73 23-147).
T1 sequence (looked up) 1: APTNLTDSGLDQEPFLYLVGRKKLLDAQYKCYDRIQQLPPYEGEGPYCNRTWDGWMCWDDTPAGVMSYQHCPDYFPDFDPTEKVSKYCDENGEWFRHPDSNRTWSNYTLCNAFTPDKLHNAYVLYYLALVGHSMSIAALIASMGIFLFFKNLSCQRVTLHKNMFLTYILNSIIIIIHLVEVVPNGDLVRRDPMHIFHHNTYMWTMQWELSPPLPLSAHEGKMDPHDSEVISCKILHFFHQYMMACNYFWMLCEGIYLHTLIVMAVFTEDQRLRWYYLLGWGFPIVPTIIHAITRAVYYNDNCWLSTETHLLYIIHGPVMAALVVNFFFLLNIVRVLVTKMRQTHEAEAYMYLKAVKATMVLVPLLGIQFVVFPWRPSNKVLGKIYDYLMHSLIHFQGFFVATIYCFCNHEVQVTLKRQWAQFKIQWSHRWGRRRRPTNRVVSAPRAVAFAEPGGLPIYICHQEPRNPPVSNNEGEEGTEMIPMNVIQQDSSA
T1 sequence (looked up) 2: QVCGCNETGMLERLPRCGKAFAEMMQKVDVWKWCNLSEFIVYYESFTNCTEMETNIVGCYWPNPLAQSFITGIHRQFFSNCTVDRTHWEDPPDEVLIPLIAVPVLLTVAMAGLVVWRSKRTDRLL

Test [2] has as its target T2, rat calcitonin (a) receptor (rat, UniProt P32214 25-516).
T2 sequence (looked up): T1 sequence (looked up) 1

The target of test [3] is T3, human amylin 3(a) receptor (human calcitonin receptor + RAMP-3) (human, UniProt P30988 25-474; O60896 24-148).
T3 sequence (looked up) 1: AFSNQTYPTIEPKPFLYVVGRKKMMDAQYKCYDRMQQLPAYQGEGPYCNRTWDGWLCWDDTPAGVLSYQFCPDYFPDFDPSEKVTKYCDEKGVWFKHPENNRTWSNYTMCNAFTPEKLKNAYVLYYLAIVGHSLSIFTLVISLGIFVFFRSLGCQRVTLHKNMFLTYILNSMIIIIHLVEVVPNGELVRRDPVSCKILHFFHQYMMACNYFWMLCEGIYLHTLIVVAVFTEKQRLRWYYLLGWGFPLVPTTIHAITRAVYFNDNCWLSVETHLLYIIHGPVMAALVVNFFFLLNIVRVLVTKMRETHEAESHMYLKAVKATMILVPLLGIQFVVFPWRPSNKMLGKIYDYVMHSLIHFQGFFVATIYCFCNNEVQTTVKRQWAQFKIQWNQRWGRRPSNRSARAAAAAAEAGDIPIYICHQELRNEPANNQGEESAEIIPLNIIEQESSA
T3 sequence (looked up) 2: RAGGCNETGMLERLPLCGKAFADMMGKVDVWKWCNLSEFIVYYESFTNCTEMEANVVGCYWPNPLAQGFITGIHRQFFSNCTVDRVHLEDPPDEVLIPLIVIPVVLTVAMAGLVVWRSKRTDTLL

The target of test [4] is T4, human calcitonin (a) receptor (human, UniProt P30988 25-474).
T4 sequence (looked up): T3 sequence (looked up) 1

This is an account of results in US20130005646A1 (Novo Nordisk, published 2013).

Starred links: 1 amine or outer side, 2 acyl side, 3 side chain; linkers in the order of their positions; H or OH if unused. Positions of bridges follow the written chain, without caps; N, C: chain ends. Non-standard residues stand in square brackets, D forms with d. *: point of attachment. C20 diacid = O=C(O)CCCCCCCCCCCCCCCCCCC(=O)*; C18 diacid = O=C(O)CCCCCCCCCCCCCCCCC(=O)*; γGlu = O=C(O)[C@H](CCC(=O)[*:2])N[*:1]; Orn = NCCC[C@H](N)C(=O)O; AEEA = NCCOCCOCC(=O)O

B1: N-alpha-[(S)-4-Carboxy-4-(19-carboxynonadecanoylamino)butyryl]-[His1,Glu14,His17,Arg18]-pramlintide (peptide)
peptide: {C20 diacid-γGlu}-HCNTATCATQRLAEFLHRSSNNFGPILPPTNVGSNTY-NH2
modifications: disulfide 2-7
SMILES: CC[C@H](C)[C@H](NC(=O)[C@@H]1CCCN1C(=O)CNC(=O)[C@H](Cc1ccccc1)NC(=O)[C@H](CC(N)=O)NC(=O)[C@H](CC(N)=O)NC(=O)[C@H](CO)NC(=O)[C@H](CO)NC(=O)[C@H](CCCNC(=N)N)NC(=O)[C@H](Cc1c[nH]cn1)NC(=O)[C@H](CC(C)C)NC(=O)[C@H](Cc1ccccc1)NC(=O)[C@H](CCC(=O)O)NC(=O)[C@H](C)NC(=O)[C@H](CC(C)C)NC(=O)[C@H](CCCNC(=N)N)NC(=O)[C@H](CCC(N)=O)NC(=O)[C@@H](NC(=O)[C@H](C)NC(=O)[C@@H]1CSSC[C@H](NC(=O)[C@H](Cc2c[nH]cn2)NC(=O)CC[C@H](NC(=O)CCCCCCCCCCCCCCCCCCC(=O)O)C(=O)O)C(=O)N[C@@H](CC(N)=O)C(=O)N[C@@H]([C@@H](C)O)C(=O)N[C@@H](C)C(=O)N[C@@H]([C@@H](C)O)C(=O)N1)[C@@H](C)O)C(=O)N[C@@H](CC(C)C)C(=O)N1CCC[C@H]1C(=O)N1CCC[C@H]1C(=O)N[C@H](C(=O)N[C@@H](CC(N)=O)C(=O)N[C@H](C(=O)NCC(=O)N[C@@H](CO)C(=O)N[C@@H](CC(N)=O)C(=O)N[C@H](C(=O)N[C@@H](Cc1ccc(O)cc1)C(N)=O)[C@@H](C)O)C(C)C)[C@@H](C)O
As for B1, in test [1], the “Amylin receptor rat EC50” value came out at 64.5 pM. Also, in test [2], the “CTa receptor rat EC50” value is 379 pM. Also, the “Amylin receptor human EC50” value in test [3] worked out at 93.4 pM. Besides, in test [4], the “CTa receptor human EC50” value is 150 pM.

B2: N-alpha-[(S)-4-Carboxy-4-(19-carboxynonadecanoylamino)butyryl]-[Glu1,Glu14,His17,Arg18,Pro37]-pramlintide (peptide)
peptide: {C20 diacid-γGlu}-ECNTATCATQRLAEFLHRSSNNFGPILPPTNVGSNTP-NH2
modifications: disulfide 2-7
SMILES: CC[C@H](C)[C@H](NC(=O)[C@@H]1CCCN1C(=O)CNC(=O)[C@H](Cc1ccccc1)NC(=O)[C@H](CC(N)=O)NC(=O)[C@H](CC(N)=O)NC(=O)[C@H](CO)NC(=O)[C@H](CO)NC(=O)[C@H](CCCNC(=N)N)NC(=O)[C@H](Cc1c[nH]cn1)NC(=O)[C@H](CC(C)C)NC(=O)[C@H](Cc1ccccc1)NC(=O)[C@H](CCC(=O)O)NC(=O)[C@H](C)NC(=O)[C@H](CC(C)C)NC(=O)[C@H](CCCNC(=N)N)NC(=O)[C@H](CCC(N)=O)NC(=O)[C@@H](NC(=O)[C@H](C)NC(=O)[C@@H]1CSSC[C@H](NC(=O)[C@H](CCC(=O)O)NC(=O)CC[C@H](NC(=O)CCCCCCCCCCCCCCCCCCC(=O)O)C(=O)O)C(=O)N[C@@H](CC(N)=O)C(=O)N[C@@H]([C@@H](C)O)C(=O)N[C@@H](C)C(=O)N[C@@H]([C@@H](C)O)C(=O)N1)[C@@H](C)O)C(=O)N[C@@H](CC(C)C)C(=O)N1CCC[C@H]1C(=O)N1CCC[C@H]1C(=O)N[C@H](C(=O)N[C@@H](CC(N)=O)C(=O)N[C@H](C(=O)NCC(=O)N[C@@H](CO)C(=O)N[C@@H](CC(N)=O)C(=O)N[C@H](C(=O)N1CCC[C@H]1C(N)=O)[C@@H](C)O)C(C)C)[C@@H](C)O
For the molecule B2, in test [1], the “Amylin receptor rat EC50” value is 374 pM. Also, the “CTa receptor rat EC50” value in test [2] was determined as 806 pM. Moreover, the “Amylin receptor human EC50” value in test [3] worked out at 82.3 pM. The “CTa receptor human EC50” value in test [4] was 86.4 pM.

B3: N-alpha-[2-(2-{2-[2-(2-{2-[(S)-4-Carboxy-4-(17-carboxyheptadecanoylamino)butyrylamino]ethoxy}ethoxy)acetylamino]ethoxy}ethoxy)acetyl]-D-Arg-D-Arg-[Orn1,Glu14,Hi … (peptide)
peptide: {C18 diacid-γGlu-AEEA-AEEA}-[dR][dR][Orn]CNTATCATQRLAEFLHRSSNNFGPILPPTNVGSNTY-NH2
modifications: disulfide 4-9
SMILES: CC[C@H](C)[C@H](NC(=O)[C@@H]1CCCN1C(=O)CNC(=O)[C@H](Cc1ccccc1)NC(=O)[C@H](CC(N)=O)NC(=O)[C@H](CC(N)=O)NC(=O)[C@H](CO)NC(=O)[C@H](CO)NC(=O)[C@H](CCCNC(=N)N)NC(=O)[C@H](Cc1c[nH]cn1)NC(=O)[C@H](CC(C)C)NC(=O)[C@H](Cc1ccccc1)NC(=O)[C@H](CCC(=O)O)NC(=O)[C@H](C)NC(=O)[C@H](CC(C)C)NC(=O)[C@H](CCCNC(=N)N)NC(=O)[C@H](CCC(N)=O)NC(=O)[C@@H](NC(=O)[C@H](C)NC(=O)[C@@H]1CSSC[C@H](NC(=O)[C@H](CCCN)NC(=O)[C@@H](CCCNC(=N)N)NC(=O)[C@@H](CCCNC(=N)N)NC(=O)COCCOCCNC(=O)COCCOCCNC(=O)CC[C@H](NC(=O)CCCCCCCCCCCCCCCCC(=O)O)C(=O)O)C(=O)N[C@@H](CC(N)=O)C(=O)N[C@@H]([C@@H](C)O)C(=O)N[C@@H](C)C(=O)N[C@@H]([C@@H](C)O)C(=O)N1)[C@@H](C)O)C(=O)N[C@@H](CC(C)C)C(=O)N1CCC[C@H]1C(=O)N1CCC[C@H]1C(=O)N[C@H](C(=O)N[C@@H](CC(N)=O)C(=O)N[C@H](C(=O)NCC(=O)N[C@@H](CO)C(=O)N[C@@H](CC(N)=O)C(=O)N[C@H](C(=O)N[C@@H](Cc1ccc(O)cc1)C(N)=O)[C@@H](C)O)C(C)C)[C@@H](C)O
Regarding B3, in test [1], the “Amylin receptor rat EC50” value came to 33 pM. Also, in test [2], the “CTa receptor rat EC50” value was determined as 2570 pM. In addition, the “Amylin receptor human EC50” value in test [3] is 29.5 pM. For the same molecule, the “CTa receptor human EC50” value in test [4] was determined as 690 pM.

B4: N-alpha-[(S)-4-Carboxy-4-(19-carboxynonadecanoylamino)butyryl]-[His1,Glu14,His17,Arg18,Ser21,Ser22,Asp31,Asp35]-pramlintide (peptide)
peptide: {C20 diacid-γGlu}-HCNTATCATQRLAEFLHRSSSSFGPILPPTDVGSDTY-NH2
modifications: disulfide 2-7
SMILES: CC[C@H](C)[C@H](NC(=O)[C@@H]1CCCN1C(=O)CNC(=O)[C@H](Cc1ccccc1)NC(=O)[C@H](CO)NC(=O)[C@H](CO)NC(=O)[C@H](CO)NC(=O)[C@H](CO)NC(=O)[C@H](CCCNC(=N)N)NC(=O)[C@H](Cc1c[nH]cn1)NC(=O)[C@H](CC(C)C)NC(=O)[C@H](Cc1ccccc1)NC(=O)[C@H](CCC(=O)O)NC(=O)[C@H](C)NC(=O)[C@H](CC(C)C)NC(=O)[C@H](CCCNC(=N)N)NC(=O)[C@H](CCC(N)=O)NC(=O)[C@@H](NC(=O)[C@H](C)NC(=O)[C@@H]1CSSC[C@H](NC(=O)[C@H](Cc2c[nH]cn2)NC(=O)CC[C@H](NC(=O)CCCCCCCCCCCCCCCCCCC(=O)O)C(=O)O)C(=O)N[C@@H](CC(N)=O)C(=O)N[C@@H]([C@@H](C)O)C(=O)N[C@@H](C)C(=O)N[C@@H]([C@@H](C)O)C(=O)N1)[C@@H](C)O)C(=O)N[C@@H](CC(C)C)C(=O)N1CCC[C@H]1C(=O)N1CCC[C@H]1C(=O)N[C@H](C(=O)N[C@@H](CC(=O)O)C(=O)N[C@H](C(=O)NCC(=O)N[C@@H](CO)C(=O)N[C@@H](CC(=O)O)C(=O)N[C@H](C(=O)N[C@@H](Cc1ccc(O)cc1)C(N)=O)[C@@H](C)O)C(C)C)[C@@H](C)O
For the molecule B4, in test [1], the “Amylin receptor rat EC50” value came out at 330 pM. Besides, the “CTa receptor rat EC50” value in test [2] was 1730 pM. Further, the “Amylin receptor human EC50” value in test [3] came out at 212 pM. For the same molecule, the “CTa receptor human EC50” value in test [4] turned out to be 208 pM.
